In patent publication US20020151484A1 (HYBRIGENICS, published 2002):

Columns and labels:
Test in all cases: yeast two-hybrid, mating, His3/LacZ reporters
[1] = biological target: T1, Bait polypeptide of SEQ ID No 79, E1 (100%), HCV strain H77 nt 995-1342 (hepatitis C virus strain H77, UniProt P27958 219-332)
T1 construct: also called Bait E1 (100%)
T1 chain: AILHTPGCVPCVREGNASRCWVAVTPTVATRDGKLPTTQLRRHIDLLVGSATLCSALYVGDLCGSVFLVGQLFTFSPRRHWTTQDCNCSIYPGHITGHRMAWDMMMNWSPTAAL

[2] = biological target: T2, Bait polypeptide of SEQ ID No 109, NS5B (100%), HCV strain H77 nt 7976-8759 (hepatitis C virus strain H77, UniProt P26664 2546-2805)
T2 construct: also called Bait NS5B (100%)

[3] = biological target: T3, SID polypeptide of SEQ ID No 31, NS5B (100%), HCV strain H77 nt 8354-8665 (hepatitis C virus strain H77, UniProt P26664 2672-2773)
T3 construct: Intersection of yeast two-hybrid prey fragments; also called SID NS5B (100%)

[4] = biological target: T4, SID polypeptide of SEQ ID No 29, NS3 (100%), HCV strain H77 nt 4451-4790 (hepatitis C virus strain H77, UniProt P27958 1371-1482)
T4 construct: Intersection of yeast two-hybrid prey fragments; also called SID NS3 (100%)
T4 sequence: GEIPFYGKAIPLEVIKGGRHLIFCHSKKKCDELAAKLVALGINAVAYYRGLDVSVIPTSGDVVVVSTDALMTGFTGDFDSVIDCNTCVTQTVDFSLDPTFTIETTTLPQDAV

[5] = biological target: T5, Bait polypeptide of SEQ ID No 107, NS5B (100%), HCV strain H77 nt 7838-8743 (hepatitis C virus strain H77, UniProt P26664 2500-2799)
T5 construct: also called Bait NS5B (100%)

[6] = biological target: T6, SID polypeptide of SEQ ID No 30, NS4B (100%), HCV strain H77 nt 6029-6194 (hepatitis C virus strain H77, UniProt P26664 1897-1950)
T6 construct: Intersection of yeast two-hybrid prey fragments; also called SID NS4B (100%)
T6 sequence: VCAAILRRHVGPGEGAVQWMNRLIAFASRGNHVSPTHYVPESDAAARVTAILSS

[7] = biological target: T7, Bait polypeptide of SEQ ID No 112, NS5B (100%), HCV strain H77 nt 8996-9220 (hepatitis C virus strain H77, UniProt Q03463 2886-2958)
T7 construct: also called Bait NS5B (100%)

[8] = biological target: T8, Bait polypeptide of SEQ ID No 84, NS3 (100%), HCV strain H77 nt 3767-4244 (hepatitis C virus strain H77, UniProt P27958 1143-1300)
T8 construct: also called Bait NS3 (100%)
T8 chain: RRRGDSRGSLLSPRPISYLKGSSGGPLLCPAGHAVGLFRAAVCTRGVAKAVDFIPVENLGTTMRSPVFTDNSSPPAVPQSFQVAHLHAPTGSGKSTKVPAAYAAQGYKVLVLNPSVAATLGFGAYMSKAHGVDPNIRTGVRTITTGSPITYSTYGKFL

[9] = biological target: T9, SID polypeptide of SEQ ID No 8, NS4A (59%)/NS4B (40%), HCV strain H77 nt 5375-5542 (hepatitis C virus strain H77, UniProt P27958 1679-1732)
T9 construct: Intersection of yeast two-hybrid prey fragments; also called SID NS4A (59%)/NS4B (40%)
T9 sequence: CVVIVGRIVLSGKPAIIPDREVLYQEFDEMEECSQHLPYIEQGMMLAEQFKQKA

[10] = biological target: T10, Bait polypeptide of SEQ ID No 80, E1 (4%)/E2 (95%), HCV strain H77 nt 1478-1756 (hepatitis C virus strain H77, UniProt P27958 380-470)
T10 construct: also called Bait E1 (4%)/E2 (95%)

[11] = biological target: T11, Bait polypeptide of SEQ ID No 111, NS5B (100%), HCV strain H77 nt 8708-8978 (hepatitis C virus strain H77, UniProt P27958 2790-2878)
T11 construct: also called Bait NS5B (100%)

[12] = biological target: T12, SID polypeptide of SEQ ID No 33, NS3 (100%), HCV strain H77 nt 4715-4901 (hepatitis C virus strain H77, UniProt P27958 1459-1519)
T12 construct: Intersection of yeast two-hybrid prey fragments; also called SID NS3 (100%)
T12 sequence: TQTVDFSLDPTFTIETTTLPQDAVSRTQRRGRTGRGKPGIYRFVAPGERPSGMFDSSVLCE

B1: SID polypeptide of SEQ ID No 4, E2 (100%), HCV strain H77 nt 1871-1987 (other)
chain: PSPVVVGTTDRSGAPTYSWGANDTDVFVLNNTRPPLG
notes: Intersection of yeast two-hybrid prey fragments; also called SID E2 (100%)
B1: binds [1].

B2: SID polypeptide of SEQ ID No 34, NS5B (100%), HCV strain H77 nt 7775-8011 (other)
chain: not shown
notes: Intersection of yeast two-hybrid prey fragments; also called SID NS5B (100%)
B2: binds [2].

B3: Bait polypeptide of SEQ ID No 106, NS5B (100%), HCV strain H77 nt 7613-8027 (other)
chain: not shown
notes: also called Bait NS5B (100%)
B3: binds [3].

B4: Bait polypeptide of SEQ ID No 104, NS5A (100%), HCV strain H77 nt 7019-7249 (other)
chain: IEANLLWRQEMGGNITRVESENKVVILDSFDPLVAEEDEREVSVPAEILRKSRRFARALPVWARPDYNPPLVETW
notes: also called Bait NS5A (100%)
B4: binds [4].

B5: SID polypeptide of SEQ ID No 32, NS5B (100%), HCV strain H77 nt 7769-8011 (other)
chain: not shown
notes: as for B2
B5: binds [5].

B6: Bait polypeptide of SEQ ID No 105, NS5A (100%), HCV strain H77 nt 7274-7549 (other)
chain: HGCPLPPPRSPPVPPPRKKRTVVLTESTLSTALAELATKSFGSSSTSGITGDNTTTSSEPAPSGCPPDSDVESYSSMPPLEGEPGDPDLS
notes: also called Bait NS5A (100%)
B6: binds [6].

B7: SID polypeptide of SEQ ID No 37, NS4B (57%)/NS5A(41%), HCV strain H77 nt 6194-6303 (other)
chain: TVTQLLRRLHQWISSECTTPCSGSWLRDIWDWICE
notes: Intersection of yeast two-hybrid prey fragments; also called SID NS4B (57%)/NS5A(41%)
B7: binds [7].

B8: SID polypeptide of SEQ ID No 9, NS3 (100%), HCV strain H77 nt 4676-4801 (other)
chain: GDFDSVIDCNTCVTQTVDFSLDPTFTIETTTLPQDAVSRT
notes: Intersection of yeast two-hybrid prey fragments; also called SID NS3 (100%)
B8: binds [8].

B9: Bait polypeptide of SEQ ID No 83, NS2 (12%)/NS3 (87%), HCV strain H77 nt 3312-4150 (other)
chain: AACGDIINGLPVSARRGQEILLGPADGMVSKGWRLLAPITAYAQQTRGLLGCIITSLTGRDKNQVEGEVQIVSTATQTFLATCINGVCWTVYHGAGTRTIASPKGPVIQMYTNVDQDLVGWPAPQGSRSLTPCTCGSSDLYLVTRHADVIPVRRRGDSRGSLLSPRPISYLKGSSGGPLLCPAGHAVGLFRAAVCTRGVAKAVDFIPVENLGTTMRSPVFTDNSSPPAVPQSFQVAHLHAPTGSGKSTKVPAAYAAQGYKVLVLNPSVAATLGFGAYM
notes: also called Bait NS2 (12%)/NS3 (87%)
B9: binds [9].

B10: SID polypeptide of SEQ ID No 5, NS3 (100%), HCV strain H77 nt 4787-5242 (other)
chain: SRTQRRGRTGRGKPGIYRFVAPGERPSGMFDSSVLCECYDAGCAWYELTPAETTVRLRAYMNTPGLPVCQDHLEFWEGVFTGLTHIDAHFLSQTKQSGENFPYLVAYQATVCARAQAPPPSWDQMWKCLIRLKPTLHGPTPLLYRLGAVQ
notes: as for B8
B10: binds [10].

B11: SID polypeptide of SEQ ID No 36, E2 (100%), HCV strain H77 nt 1751-1865 (other)
chain: PISYANGSGLDERPYCWHYPPRPCGIVPAKSVCGPVY
notes: as for B1
B11: binds [11].

B12: Bait polypeptide of SEQ ID No 108, NS5B (100%), HCV strain H77 nt 7856-8458 (other)
chain: not shown
notes: also called Bait NS5B (100%)
B12: binds [12].
